Test results reported in the DeepSol protein solubility set.

experiment: soluble on expression in E. coli; label from the status in PepcDB or PDB records

| Sequence | soluble on expression in E. coli |
| --- | --- |
| MKIEKTSNFAPINLLYKKKTSFNSRGIFLIIAFNNSSFNLIYKNNNKSYKSTRLNTILRKKNRVIEQVLDKDIIVVPLGGLGEIGMNCMLIGSKKRFILIDCGIMFTDLSHLGIQKVIPDINFLTHIQNLIEGLIITHGHEDHIGAINWVLPILRTDALVYTSRFVYNIISKRIDKQNYLFKKLFRIFDLKKRFQLGPFECEAFRVTHSIPDCCGFVIRSKYGLIVHTGDWKIDEFPLDGEKFDREFLESISKEKVLLMMSDSTNSLSHGRTASEKVVQDSLVSIITNPKIKGRIITTQFASNVFRLYSIKKAADISKKKICFLGTSLNSYLDASLLDGRAPFHPSELVQESELKNIDPDKIIIVTTGSQGEARSTLNLSSLDLSPRLSLNPYDTIIYSAKIIPGNDKKVVRMLNRISSHGCKIIYGNQAKIHTSGHAYEDELKEILKIVKPSYFLPVHGELISLNVHSSIALQNCGIKNTIVMRNGQVLSLESDNQNPLGFKLFNLSGEINLVNHYNTGSSILGSYADIGISDKIKISNEGIILISLEFVRIKESDTYVSFKSKLRISSRGIWIDRGKLNFIIKKLLFNILNKCRTNISIISLEQIISETMNYSCYKINRSNPEIIVYANELTNI | soluble |
| SLTQIQPGVEKFIKDFNDAKKKGEHAYDMTLSYQNFDKGFFNSRFQMQMTFDNGAPDLNIKPGQKVVFDVDVEHGPLPITMLMHGNVIPALAAAKVNLVNNELTQPLFIAAKNKSPVEATLRFAFGGSFSTTLDVAPAEYGKFSFGEGQFTFNGDGSSLSNLDIEGKVEDIVLQLSPMNKVTAKSFTIDSLARLEEKKFPVGESESKFNQINIINHGEDVAQIDAFVAKTRLDRVKDKDYINVNLTYELDKLTKGNQQLGSGEWSLIAESIDPSAVRQFIIQYNIAMQKQLAAHPELANDEVALQEVNAALFKEYLPLLQKSEPTIKQPVRWKNALGELNANLDISIADPAKSSSSTNKDIKSLNFDVKLPLNVVTETAKQLNLSEGMDAEKAQKQADKQISGMMTLGQMFQLITIDNNTASLQLRYTPGKVVFNGQEMSEEEFMSRAGRFVH | soluble |
| MGSDKIHHHHHHGREEKTVYDFPLEQSLKSDKEVSLNKELLAPYLMCSYDSTLCLIDWTANPMVHVYNMNTGKEMVAFGNKGMGPDDFLSISQMYVDMGKRSLLLYDQSLQTISSFQIDSLAQGSLSKIDCVSAPKLGMNRVYAYSDSIFYGSGTFESGLIAKCNQKEILNQYLPFPHTEQAVNRDVNYLLFQGDLIMKPDKKRFAYLAYECDLLSIQKVVNDTCLESVVHLNTYTPVFENQSTNEVSSVNVSTDSPKGFLRGVATENYVYALYSGQIGKNKAIANEVYVFDWEGRAVKKVILDRWGICISVDSNDERLCLMTKETDGGEERYHYYCYQLN | not soluble |
| YDPYQHIEKATNRRNMVLNAMVETGDITKAEGDKYKATKIVLNDQSKDPLANKYPWYVDAVINEAVNEADITQDEIMQKGY | not soluble |
| GPGSMPPRRKSECLSSYAVDTTPSFQDEKFIEQLLHFVGANDEVSLLTMTAVALGAECYQVDLGQQIVVDARLDFINFCAKQGYCAAKVVHLLKWLCTFQERVEDGCNTQEMQEEVIAFVTSEVEEEWKWKRALQAEEALWEVQSSSKTSARRGHRAAEKVVEETEAVSTVPKENIYLQREDIGPFSTWLIQGIVQHASLYHYVATHARMVGEPEEFNYFLEVPVSAPPLRNALAPESVPQEPPLAKAQQDVEEQRASELETYKKEYEEAMALEQLRLQTIQNERDMKVFIENEGSMRAVEDTYESLQVDLSKRQRQILERITAAEKALGIFPFVQPQ | not soluble |
| MGSDKIHHHHHHMITVVGGTFSKLHKGHKALLEKAIETGNEIVIGLTSDEYVKRNKVYPAIPYKERYRNLYNYMVKKTNKFRIRPIDDRNGNAPYERDYEIIVVSPETYQRSLKINEIRIQNGLPPLKIIRVPYVLAEDLFPISSTRIINGEIDGNGRRLKPVKVAIATNNSAKLKATNDFFHKLMKNFDVIQNTDYKLETQQPFGEVTMNMATKRAMQSLGDNDYAIGIESGIVYERFSRKYFDFHYCVVIDRFGNVTRGSSSGFEVPDRIIDLIKRDMSFSQAYGKVIDTNGIDDSTGIVGKISNGRVRRYDLIMECIRNAFIPRFDPDFYDTTYTPP | not soluble |
| MGKKHKKHKSDKHLYEEYVEKPLKLVLKVGGNEVTELSTGSSGHDSSLFEDKNDHDKHKDRKRKKRKKGEKQIPGEEKGRKRRRVKEDKKKRDRDRVENEAEKDLQCHAPVRLDLPPEKPLTSSLAKQEEVEQTPLQEALNQLMRQLQRKDPSAFFSFPVTDFIAPGYSMIIKHPMDFSTMKEKIKNNDYQSIEELKDNFKLMCTNAMIYNKPETIYYKAAKKLLHSGMKILSQERIQSLKQSIDFMADLQKTRKQKDGTDTSQSGEDGGCWQREREDSGDAEAHAFKSPSKENKKKDKDMLEDKFKSNNLEREQEQLDRIVKESGGKLTRRLVNSQCEFERRKPDGTTTLGLLHPVDPIVGEPGYCPVRLGMTTGRLQSGVNTLQGFKEDKRNKVTPVLYLNYGPYSSYAPHYDSTFANISKDDSDLIYSTYGEDSDLPSDFSIHEFLATCQDYPYVMADSLLDVLTKGGHSRTLQEMEMSLPEDEGHTRTLDTAKEMEITEVEPPGRLDSSTQDRLIALKAVTNFGVPVEVFDSEEAEIFQKKLDETTRLLRELQEAQNERLSTRPPPNMICLLGPSYREMHLAEQVTNNLKELAQQVTPGDIVSTYGVRKAMGISIPSPVMENNFVDLTEDTEEPKKTDVAECGPGGS | soluble |
| SLNGKYATLKDVAKLAGTTASTVSYVLNDSKERYISDEMRRRVLEAAKDLNYVKCSVASSLKGEKRKIIAVLVPQFSNQFFTRIILAIENVADQFDYVLTIYNTFDDPKREKVIINRMAQHRMDGYIIIPTYEGVKNTEQLRKIGIPMVVMDRPLEGIDDFIWVTTNNYQCGYKGAHYLALKGHRNIAFIGWNSRINDLDSRKNGFWDALAASGITSEEAIVIDGEFSEEDGYKMTKNLLKTRPDITAIFYGYNVQAQGGVRYLMKENIEIGKDISVMLIGSPEWAVTGYNNFTHIEQDEYNLGKSAATILFSIINGENQENIQNIIQDCSLYEGNSVYDITKEG | soluble |
| MSLTQRIDFQTDPSRYRHWRVAYDGEIANLYMDVDEQGGLFPGYELKLNSYDLGVDIELADIVQRMRFEHPEVKVVVMQSGKDRVFCAGANIRMLGGASHAHKVNFCKFTNETRNTYEAAEADSGQKYIAAVKGACAGGGYELALACNYIMLTNDSSSSVALPEVPLLAVLPGTGGLTRVTDKRKVRRDLADVFCSVEEGVRGQRAVDWRLVDEIAPNSKFDEVVQERAREFASASVKPSGLTGIALTPLDRRFAEDGSVTYSTVEVVVEREAGRATLTISGPTDAAPDTVDALQAQGAEAWILRAARELDDAILHLRLNERRIGTLVIQTQGDGAAVAAHEALLLENRDHWLANEILQHWKRVLKRVDMTSRSLVAIVEHGSCFAGPLAELLWAVDRSYMMLEEGHHHHHH | not soluble |
| MPHILNVTVPIPETHVLITKDEYDELIGYSLDPVWNMSDLKKKLKIASDETIKDRLLFHPRFEKELRAQGIVHYPDENFNRWRFNARKMNKFVDEHFNEIYKERIKLEHHHHHH | not soluble |
| MAHHHHHHMNFVFIYIVLISFFNKSRCDNELSVKGSLTVANLKISSKNNQENGILFVNEESEYKIGLNERSELIISKKKKPLVTIDEHENLNFFNLDLSVKILNIQGILKIMNVNQFQMFVHEDFSNSSNTKGWIGDQFFNYTSSCGGINLLGGYGKLSKGEIYKTFENIPSHSQIRIKCNFHFIDNWDNQTAYMKITTDEKEEKYYVWTDTHSQINKQNSINICGNTTGESKFFSIIDIIIPHNSNKLIIYFGTNIQKDEPNLISWGISNFQIYLI | not soluble |
| MPPKTRKTKKEDVEEEAVEEILEETKPAKLPESDESYSRKVVISKEGNLPNSRIIKLRHPKEGLALFRISETCFDEIFAVNDGHRSFFYGESVIENGTIHIFTPYNLVFICLPYLQKTAGKFVEIGEILVDDQVDGIKELAENERILKALEAVSDVKDVLDVKLYRLNDQKMLDWMRRKFDSLKKLLESDAHKSLLSCPEAFDRYVFTFLSEYLSSDLALIVKDHLNIQDATVSENIDMSMKRKAVDDDELEDKKQPVAKKPKESVQSKKLQAASKGTKSISSFFGKKSA | soluble |
